This series concerns the molecule itself. Briefly: cryo-EM imaging with calculated diffraction patterns (layer lines); tubulin or microtubules with LRRK2^RCKW (WT or mutant), with or without MLi-2; layer lines in diffraction patterns calculated from images of single filaments, 2D class averages.

Numbering of substitutions follows the chain as printed. In names and notes the source's numbering stands.

B1: LRRK2^RCKW-S2345D (domain or fragment, human)
chain: KKAVPYNRMKLMIVGNTGSGKTTLLQQLMKTKKSDLGMQSATVGIDVKDWPIQIRDKRKRDLVLNVWDFAGREEFYSTHPHFMTQRALYLAVYDLSKGQAEVDAMKPWLFNIKARASSSPVILVGTHLDVSDEKQRKACMSKITKELLNKRGFPAIRDYHFVNATEESDALAKLRKTIINESLNFKIRDQLVVGQLIPDCYVELEKIILSERKNVPIEFPVIDRKRLLQLVRENQLQLDENELPHAVHFLNESGVLLHFQDPALQLSDLYFVEPKWLCKIMAQILTVKVEGCPKHPKGIISRRDVEKFLSKKRKFPKNYMSQYFKLLEKFQIALPIGEEYLLVPSSLSDHRPVIELPHCENSEIIIRLYEMPYFPMGFWSRLINRLLEISPYMLSGRERALRPNRMYWRQGIYLNWSPEAYCLVGSEVLDNHPESFLKITVPSCRKGCILLGQVVDHIDSLMEEWFPGLLEIDICGEGETLLKKWALYSFNDGEEHQKILLDDLMKKAEEGDLLVNPDQPRLTIPISQIAPDLILADLPRNIMLNNDELEFEQAPEFLLGDGSFGSVYRAAYEGEEVAVKIFNKHTSLRLLRQELVVLCHLHHPSLISLLAAGIRPRMLVMELASKGSLDRLLQQDKASLTRTLQHRIALHVADGLRYLHSAMIIYRDLKPHNVLLFTLYPNAAIIAKIADYGIAQYCCRMGIKTSEGTPGFRAPEVARGNVIYNQQADVYSFGLLLYDILTTGGRIVEGLKFPNEFDELEIQGKLPDPVKEYGCAPWPMVEKLIKQCLKENPQERPTSAQVFDILNSAELVCLTRRILLPKNVIVECMVATHHNSRNASIWLGCGHTDRGQLSFLDLNTEGYTSEEVADSRILCLALVHLPVEKESWIVSGTQSGTLLVINTEDGKKRHTLEKMTDSVTCLYCNSFSKQSKQKNFLLVGTADGKLAIFEDKTVKLKGAAPLKILNIGNVSTPLMCLSESTNSTERNVMWGGCGTKIFSFSNDFTIQKLIETRTSQLFDYAAFSDSNIITVVVDTALYIAKQNSPVVEVWDKKTEKLCGLIDCVHFLREVMVKENKESKHKMSYSGRVKTLCLQKNTALWIGTGGGHILLLDLSTRRLIRVIYNFCNSVRVMMTAQLGSLKNVMLVLGYNRKNTEGTQKQKEIQSCLTVWDINLPHEVQNLEKHIEVRKELAEKMRRTSVE
notes: LRRK2, human, carboxy-terminal catalytic half with the ROC, COR, kinase and WD40 domains; also called p.S2345D; WD40 dimerization interface mutant; source: Sf9 insect cells, baculovirus, purified (Ni-NTA, SP Sepharose, TEV cleavage, second Ni-NTA, S200 gel filtration); not shown: His6-Z, N-terminal, cleaved
On to B1, for which the binding result is “binds”.

B2: LRRK2^RCKW-G2019S (domain or fragment, human)
chain: B1 chain with G693S, D1019S
notes: LRRK2, human, carboxy-terminal catalytic half with the ROC, COR, kinase and WD40 domains, with the PD-linked mutation p.G2019S; also called LRRK2^RCKW carrying p.G2019S; source: Sf9 insect cells, baculovirus, purified (Ni-NTA, SP Sepharose, TEV cleavage, second Ni-NTA, S200 gel filtration); not shown: His6-Z, N-terminal, cleaved
As to B2, the binding result is “binds”.

The values are drawn from PMC9758056, “Structural basis for Parkinson’s disease-linked LRRK2’s binding to microtubules” (Nature Structural & Molecular Biology, 2022).
